Target: yeast SCF^Cdc4 ubiquitin ligase (yeast) (UniProt P52286)
UniProt P52286, sequence (P52286 whole entry, chain 1 of 4): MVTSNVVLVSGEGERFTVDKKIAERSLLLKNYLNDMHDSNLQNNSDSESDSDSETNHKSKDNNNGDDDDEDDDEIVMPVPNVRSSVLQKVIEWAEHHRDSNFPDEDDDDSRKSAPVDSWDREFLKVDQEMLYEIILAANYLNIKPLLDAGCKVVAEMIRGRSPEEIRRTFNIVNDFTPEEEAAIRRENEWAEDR
UniProt P52286, sequence (Q12018 whole entry, chain 2 of 4, further chain): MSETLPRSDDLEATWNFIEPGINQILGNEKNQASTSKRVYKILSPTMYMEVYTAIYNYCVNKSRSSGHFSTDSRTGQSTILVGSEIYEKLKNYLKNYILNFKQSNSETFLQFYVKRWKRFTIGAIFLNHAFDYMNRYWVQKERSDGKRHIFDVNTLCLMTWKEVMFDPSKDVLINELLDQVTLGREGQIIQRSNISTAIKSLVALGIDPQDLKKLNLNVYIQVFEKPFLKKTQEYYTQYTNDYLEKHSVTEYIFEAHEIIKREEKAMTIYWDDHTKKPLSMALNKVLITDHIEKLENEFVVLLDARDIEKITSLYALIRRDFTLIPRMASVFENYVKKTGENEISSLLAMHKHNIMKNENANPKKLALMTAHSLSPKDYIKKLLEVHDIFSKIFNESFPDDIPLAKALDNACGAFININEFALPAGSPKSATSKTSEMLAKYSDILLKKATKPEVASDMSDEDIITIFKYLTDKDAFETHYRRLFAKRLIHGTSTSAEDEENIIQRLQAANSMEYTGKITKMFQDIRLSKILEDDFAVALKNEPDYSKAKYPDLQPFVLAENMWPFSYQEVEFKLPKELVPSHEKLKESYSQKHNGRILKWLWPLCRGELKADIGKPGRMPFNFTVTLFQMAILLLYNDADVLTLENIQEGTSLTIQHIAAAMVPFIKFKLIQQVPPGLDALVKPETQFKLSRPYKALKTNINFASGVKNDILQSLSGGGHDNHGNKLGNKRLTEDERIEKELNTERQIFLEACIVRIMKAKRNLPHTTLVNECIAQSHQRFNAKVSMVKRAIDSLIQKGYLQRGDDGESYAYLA
UniProt P52286, sequence (P07834 whole entry, chain 3 of 4, further chain): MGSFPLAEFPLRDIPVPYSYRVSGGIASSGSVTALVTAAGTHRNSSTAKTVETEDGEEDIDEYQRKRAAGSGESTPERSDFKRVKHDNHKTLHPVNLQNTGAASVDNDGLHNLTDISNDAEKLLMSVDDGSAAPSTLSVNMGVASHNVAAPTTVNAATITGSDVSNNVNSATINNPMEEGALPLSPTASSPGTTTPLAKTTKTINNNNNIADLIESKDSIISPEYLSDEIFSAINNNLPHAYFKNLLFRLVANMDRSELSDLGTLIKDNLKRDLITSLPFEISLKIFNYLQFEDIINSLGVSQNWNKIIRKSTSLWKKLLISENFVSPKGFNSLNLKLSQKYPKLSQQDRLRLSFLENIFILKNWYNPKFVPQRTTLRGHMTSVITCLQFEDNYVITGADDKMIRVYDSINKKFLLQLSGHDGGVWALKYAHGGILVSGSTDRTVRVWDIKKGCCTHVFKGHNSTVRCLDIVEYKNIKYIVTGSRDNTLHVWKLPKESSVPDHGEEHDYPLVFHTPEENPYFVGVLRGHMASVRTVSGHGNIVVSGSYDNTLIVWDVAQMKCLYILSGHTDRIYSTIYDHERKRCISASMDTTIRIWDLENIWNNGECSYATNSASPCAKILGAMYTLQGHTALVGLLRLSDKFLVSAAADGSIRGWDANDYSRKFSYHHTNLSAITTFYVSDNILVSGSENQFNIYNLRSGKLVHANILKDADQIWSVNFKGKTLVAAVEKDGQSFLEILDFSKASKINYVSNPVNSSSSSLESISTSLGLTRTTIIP
UniProt P52286, sequence (Q08273 whole entry, chain 4 of 4, further chain): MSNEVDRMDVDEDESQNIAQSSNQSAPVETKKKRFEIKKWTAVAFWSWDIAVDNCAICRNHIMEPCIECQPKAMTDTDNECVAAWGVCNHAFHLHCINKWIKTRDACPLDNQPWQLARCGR

B1: yeast Cdc34-Δ220 (domain or fragment)
chain: MSSRKSTASSLLLRQYRELTDPKKAIPSFHIELEDDSNIFTWNIGVMVLNEDSIYHGGFFKAQMRFPEDFPFSPPQFRFTPAIYHPNVYRDGRLCISILHQSGDPMTDEPDAETWSPVQTVESVLISIVSLLEDPNINSPANVDAAVDYRKNPEQYKQRVKMEVERSKQDIPKGFIMPTSESAYISQSKLDEPESNKDMADNFWYDSDLDDDENGSVILQ
**Q.** For B1, which fold increase in Km in Sic1 ubiquitylation reactions, against Cdc34-Δ230 is on record?
**A.** 3 fold

— article PMC2794717
